In publication PMC8106667 (Molecular cell, 2021):
Positions count from the first letter of the chain named. In names and notes the source's numbering stands.

T1: MBP-GFP-ORC1 wild type, full length (human, UniProt Q13415 1-861)
T1 sequence (looked up): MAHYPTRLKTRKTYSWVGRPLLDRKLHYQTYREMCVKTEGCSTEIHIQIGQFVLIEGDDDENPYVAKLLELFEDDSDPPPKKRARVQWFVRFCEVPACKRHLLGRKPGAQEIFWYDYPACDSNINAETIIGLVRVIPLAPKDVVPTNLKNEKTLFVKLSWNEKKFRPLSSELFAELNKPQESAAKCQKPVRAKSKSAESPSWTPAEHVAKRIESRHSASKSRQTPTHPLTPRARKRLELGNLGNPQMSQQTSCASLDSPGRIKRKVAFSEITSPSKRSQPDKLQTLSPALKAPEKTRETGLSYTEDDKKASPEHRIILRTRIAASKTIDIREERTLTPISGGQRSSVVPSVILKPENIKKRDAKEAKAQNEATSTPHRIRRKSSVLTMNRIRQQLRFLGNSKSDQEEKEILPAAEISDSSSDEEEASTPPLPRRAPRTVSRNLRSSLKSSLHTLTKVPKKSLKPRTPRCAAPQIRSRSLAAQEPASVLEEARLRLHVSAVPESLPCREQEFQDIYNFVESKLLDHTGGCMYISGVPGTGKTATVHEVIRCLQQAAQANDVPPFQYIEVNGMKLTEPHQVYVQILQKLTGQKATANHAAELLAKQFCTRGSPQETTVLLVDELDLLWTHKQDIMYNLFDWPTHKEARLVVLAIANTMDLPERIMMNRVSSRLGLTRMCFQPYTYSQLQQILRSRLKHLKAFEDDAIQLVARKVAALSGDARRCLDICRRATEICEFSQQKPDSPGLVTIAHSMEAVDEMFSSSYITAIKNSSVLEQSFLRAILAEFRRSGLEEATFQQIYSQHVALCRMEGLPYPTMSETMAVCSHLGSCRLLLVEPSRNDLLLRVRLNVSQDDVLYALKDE

B1: MBP-ORC1 wild type, full length (natural protein, human, UniProt Q13415 1-861, looked up)
chain: T1 sequence (looked up)
B2: MBP-ORC1 R105Q (natural protein, human, UniProt Q13415 1-861, looked up)
chain: T1 sequence (looked up) with R105Q
B3: MBP-ORC1 R105Q, R720Q (natural protein, human, UniProt Q13415 1-861, looked up)
chain: T1 sequence (looked up) with R105Q, R720Q
B4: MBP-ORC1 R720Q (natural protein, human, UniProt Q13415 1-861, looked up)
chain: T1 sequence (looked up) with R720Q
B5: MBP-ORC1^235ARA^237 (MBP-ORC1 A-A), full length (natural protein, human, UniProt Q13415 1-861, looked up)
chain: T1 sequence (looked up) with K235A, L237A
B6: GST-CDC6 Δ71–90 (natural protein, human, UniProt Q99741 1-560, looked up)
chain: MPQTRSQAQATISFPKRKLSRALNKAKNSSDAKLEPTNVQTVTCSPRVKALPLSPRKRLGDDNLCNTPHLLKGRRLVFDNQLTIKSPSKRELAKVHQNKILSSVRKSQEITTNSEQRCPLKKESACVRLFKQEGTCYQQAKLVLNTAVPDRLPAREREMDVIRNFLREHICGKKAGSLYLSGAPGTGKTACLSRILQDLKKELKGFKTIMLNCMSLRTAQAVFPAIAQEICQEEVSRPAGKDMMRKLEKHMTAEKGPMIVLVLDEMDQLDSKGQDVLYTLFEWPWLSNSHLVLIGIANTLDLTDRILPRLQAREKCKPQLLNFPPYTRNQIVTILQDRLNQVSRDQVLDNAAVQFCARKVSAVSGDVRKALDVCRRAIEIVESDVKSQTILKPLSECKSPSEPLIPKRVGLIHISQVISEVDGNRMTLSQEGAQDSFPLQQKILVCSLMLLIRQLKIKEVTLGKLYEAYSKVCRKQQVAAVDQSECLSLSGLLEARGILGLKRNKETRLTKVFFKIEEKEIEHALKDKALIGNILATGLP

biological target: T1, MBP-GFP-ORC1 wild type, full length; test: pull-down

binding result	Binder
binds	B1
binds	B2
binds	B3
binds	B4
binds	B5

biological target: B1; test: pull-down

binding result	Binder
binds	B6
